Each block holds one molecule with its values, some of them ahead of it.
Columns and labels:
[1] = molecular target: Sla2 IDR-CC-mScarlet (IDR, coiled-coil and REND regions) (S. cerevisiae) (UniProt P33338)
[2] = molecular target: Sla2 IDR-CC-mScarlet (IDR, coiled-coil and REND regions) (S. cerevisiae) (UniProt P33338); remark: listed apart in the source

UniProt P33338, sequence (P33338 261-746): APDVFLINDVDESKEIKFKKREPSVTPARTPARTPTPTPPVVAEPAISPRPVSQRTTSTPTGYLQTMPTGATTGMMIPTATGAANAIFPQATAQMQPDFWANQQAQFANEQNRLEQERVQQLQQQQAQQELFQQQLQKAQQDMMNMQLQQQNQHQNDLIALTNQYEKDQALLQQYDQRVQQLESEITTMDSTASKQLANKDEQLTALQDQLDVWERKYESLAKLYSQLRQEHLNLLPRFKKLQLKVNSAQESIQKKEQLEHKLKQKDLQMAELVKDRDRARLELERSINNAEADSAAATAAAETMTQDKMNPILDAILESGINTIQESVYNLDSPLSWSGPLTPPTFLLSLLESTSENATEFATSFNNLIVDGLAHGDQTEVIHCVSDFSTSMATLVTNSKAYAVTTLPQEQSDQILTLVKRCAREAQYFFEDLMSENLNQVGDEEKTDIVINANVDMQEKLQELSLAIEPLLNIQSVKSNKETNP

- ID/IS of Clathrin (green channel) with Sla2 IDR-CC-mScarlet droplets, 2.5% (w/v) PEG 8000 [1]: 3.6
- ID/IS of Sla2 IDR-CC-mScarlet (magenta channel) in the presence of Clathrin, 2.5% (w/v) PEG 8000 [1]: 6.9
Molecule: "Clathrin" construct: full-length CLC and CHC distal leg (residues 1172-1572) heterodimer conjugated to mNeonGreen (from UniProt P17891 1-233; P22137 1172-1572) (complex)

- ID/IS of 20 µM Sla2 IDR-CC when mixed with 45 µM Ede1 IDR-CC (4.7 for Sla2 IDR-CC alone), 2.5% (w/v) PEG 8000 [2]: 7.8
- droplet-to-solution intensity ratio (ID/IS) of 5 µM Ede1 IDR-CC in condensates of 20 µM Sla2 IDR-CC, 2.5% (w/v) PEG 8000 [2]: 4
B1: Ede1 IDR-CC (residues 366-900) tagged with mEGFP (domain or fragment)
chain: GLYPPNPLPQQQSAPQIAIPSRASKPSLQDMPHQVSAPAVNTQPTVPQVLPQNSNNGSLNDLLALNPSFSSPSPTKAQTVVQNNTNNSFSYDNNNGQATLQQQQPQQPPPLTHSSSGLKKFTPTSNFGQSIIKEEPEEQEQLRESSDTFSAQPPPVPKHASSPVKRTASTTLPQVPNFSVFSMPAGAATSAATGAAVGAAVGAAALGASAFSRSSNNAFKNQDLFADGEASAQLSNATTEMANLSNQVNSLSKQASITNDKKSRATQELKRVTEMKNSIQIKLNNLRSTHDQNVKQTEQLEAQVLQVNKENETLAQQLAVSEANYHAAESKLNELTTDLQESQTKNAELKEQITNLNSMTASLQSQLNEKQQQVKQERSMVDVNSKQLELNQVTVANLQKEIDGLGEKISVYLTKQKELNDYQKTVEEQHAQLQAKYQDLSNKDTDLTDREKQLEERNRQIEEQENLYHQHVSKLQEMFDDLSQRKASFEKADQELKERNIEYANNVRELSERQMNLAMGQLPEDAKDIIAKSAS

— PMC13615978
